Measured values: the domain aggregation screens of Martell et al. (2025)

Test: soluble fraction after stress (log2 fold change); higher = more stays soluble; pooled small domains, quantitative proteomics
Settings: stress: 75 degC
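Further: 20 min heating vs room temperature control held 20 min.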

Row | Sequence | soluble fraction (log2)
1 | HMLKPKDLHLGDSVRVLSLNLKGTVSSLPDTKGFLFVQMGIMRSKLHISDLQLIDEPVITAP | -2.23
2 | HMDAVTPVLSRIRDARFKRMVLPGDEIEISVTLIDTIGKFFNLSGQIRNKDKISLTVNFALALV | 0.195
3 | HMKQYSFEISKADFKKISENFNFKIINEINDSLIISLNDKNINLDELLIFFVERKIKVRSIENI | -3.69
4 | HMPVVKIPFILTEGPSSITKVIEIDADEILELKDVFQEDDKLWSINQIEMNDGRYVKHSDASLIVRASALR | 0.233
5 | HMALSTRERMSFVLEVLKEKEFIPFVDLFSPEEGRAGVVVTFLALMELMKDSLIEIVQTKNFGEIHVRARL | -0.316
6 | HMGSVNDNVQKLTSQIGETTETGDTITPEDVELYKKMVDPLSTMAQKLEAAEILKLKGIIGSNGIIV | -0.211
7 | HMNKIGTIVSINGPIVKTAGDVGFVMHEMVYVGKEKLVGEVIGLTTDFTIVEVYEETSGIKPGETIEGT | -1.87
8 | HMAKSKYETHVLPNLDKIIKWAKAGATAKEIAANLHIAYSTFRKYLDEGQEGDERYAALSAAFAQA | -0.0762
9 | HMNTRWDDAAQTWLRKVIEQQPVLVQISAAKRLRDQAEQRAREAGEEVVTEQHVKRAGLELGFGEP | 0.0588
10 | HMEKSQIHLIHTRYVNPEQLVPILSMVIPAENIYVKSDSNLIIINGSSEMLREVESIVSKLDVPS | -0.255
11 | HMSQITEADYIPNTDKTWGELMEETGESLPNLVERYNNEMTKSNGKEQPQSIIQRIIEDYQMVS | 0.253
12 | HMSSDLDQYMKNIRKQHNLSKREFAKQLGISAATIVRIENGITVSPSKNLISKLAYYLQKSEVEILQDIQS | -1.16
13 | HMSLSKEEFETISKQVLELAGAGPIPVKELLQKMERTSKEKAWKVIEFLQAEDKIVPDATGRIQL | -0.727
14 | HMENKTGEVTVREDSALTLRQGPGTNYEKVGQAYRGDRVDVLEEQNGWYKVKTYDGKEAWASSSYISIV | 0.861
15 | HMNGTGSVYKLSGKRRNPWRAVVTNGWAYNEEKGKLVQNRVTIGYYHTRDEAIQAIANYNSSP | -1.53
16 | HMAKNSVLTIELWNSTAFKWRKDTEPYSESMSVDFNRSVRLTDGISIMFSKFGFVPGIQYLIPLQT | -0.534
17 | HMNHLSYEQRLKIKEMLDGGFKKIDIARALGVHNATIYREIERGSVNGIYNPNKSEEQYRDHLSEK | 0.378
18 | HMRVDLATEVHSVLRRMMSRPPTLQEIRADLDGEEPGRVHEALDALRAAFRGGRGPKNPYESLKRSLRRG | -0.636
19 | HMTKNIIVTTSVKTSDELVEVAKNHALNLELDFNYRNKKTIKELLSSFDGLVVIYKNKISYFEDNSELF | 0.335
20 | HMETKQYIVEAQDEGTRLDVYLTKELGQSRSYVQSLVKEGHVQVNGKTGKSNLKLSSSSEILVTIPEVQ | 0.067
21 | HMSGIESIVIPLKGLDFDMISSTLTPQLKQAIKYDKQSDSIILVGTNAKVNIIAKQVNAMVEVYKLKT | -1.81
22 | HMEETGFYIKLQDQEVVIFHNDQVTPYEYTGIREEVLPESELEKLREGFFVEDEKELYSVLENLS | 0.0782
23 | HMEISTEVPLRGGTISEEALEALNRLPGVTASNIDGKSISVDVADNAELRVSDINQVLAVHSPDTRV | -0.0403
24 | HMNIDGLIGKKALVTADIDNVNSKGQIKINGLEWTARSVDDEPIPMGTEVEITAISGVKAIVRKG | 0.139
25 | HMGKGVDKIMKMADDYSYGKIAGKTVDVMTAKLFQAAYNKAPQKAKDKVDKMNEKQLYIFMMNLWKRF | -0.768
26 | HMSFKQARFMMDAANGKALAWLYSHAEVLDRKDQGENIEIHVMISPADLSRFVNAFGYQPVQS | -1.07
27 | HMWTIDPLDWKTENADQIVEKVMSEAKENAIILLHDRYEASVEAALRIVDLLKEQGYTFVTADKLV | -0.154
28 | HMSDDLLTGLDAYSRGDWTTATASFERVLTTADPNNRTEALYWLVMSETSAQNYQRALNYANTFL | -0.707

Row | Sequence | soluble fraction (log2)
29 | HMAITLEVAKKHLEMWLEAESEVAINQSYTIGGKSFTRANLAEIRKQIEYWSNKVAELENLA | -1.04
30 | HMLERKPVLVASRDLPALAVIGKDDLSVELLRTAPVGSYDRPEALLGKRVWVAVPAGSILSAATLEP | -0.366
31 | HMDPEARRRAILNAAIDVIVEKGAAALTHRAVAARAGVSLGSTTKYFSSIEDLRENAMDALVREMD | -0.496
32 | HMIKEVGYEKFMQMTEEEDIGRVEIDQEENQITFTDKDETAIYKTGMVDDPDLTERLYDAGAEFS | 0.0721
33 | HMQVLLTRREKEILKLIAEGLTSAEIGKRLFISTTTVDTHRKHLLEKLKAGNTAILIKTAVQLDLI | -2.53
34 | HMRKEPSYASDIITRLKEADLIVVEGTLYPLLTRLKKDGLLSYEWRESTQGPPRKYYALTLDGET | -0.47
35 | HMYPMQNYSTIIGVIELRQQSVGYATTQKRYGIGSSTVTLIMKRFKELGLTLEELRAMPPKAVEVAFYPPE | -1.69
36 | HMKNNAIAPDQVVSLLKNEVNYNDDGRIEILDNNKNIRYNSKGELLTIEERVNEFLDANPHFRK | 0.0664
37 | HMSRLLRTDAHLQYAAERGLPVTASAYTPVFAGAKQYTGRIESFDAQTIRFADGPAVERKAVARLEAE | 0.104
38 | HMNIFKLYEENIGPLTPMIADILKEDEAEFPDYWIREAIEIAVKKNARNWKYVHAVLESWQKE | -3.47
39 | HMSLLQDRQRHEALAALGYYRGSVSAAWGAASVEALKAAQAALGVEVDGKWGPKTEDVIQAALGT | -0.272
40 | HMYPDNEQTLSKLAFEFFKKRNIPISQSNINQIVTKSLGDRENLYNELLKIENFSTSGKKLTDNVIKKLIN | -0.0858
41 | HMVVQTELVRISITSLSGEDIRRLVQIKVVGATIEPFEGGGFLITGTAEQIAKAKDFLNSMSTEF | -2.42
42 | HMSPQPPNQEAVRTRILDQAAHLFLTIGYAETTVRRIAGAVGIKAASLYHHFGSKDEVFESILIR | 0.274
43 | HMSTSERLKQVMEVKGFNLKTFSEQADIPYRTLQNYILTNREPSAESLAKLHSQLGINLNWLMSGKGEMF | -0.685
44 | HMSYPFSEDALKEKIREYLKHNRSINRKVLEAEFHIRKQTALNWLKKLEKSGFLIKEGSRNAPVYFLAE | -1.83
45 | HMQISDAGALLDAVRRVLAENPAQVEQFRAGKEKVMGFLVGQVMRATGGKANPQMLNDVLREELS | -0.196
46 | HMGENTIFSGVLGEGRLDSALAHALPQFSRARIQGLIAEDAVLIAGKATNDAASKKFAGQSFELSVPAPRP | 0.119
47 | HMRQLISIYNNTIGADEIDQMRNILSNSGYKEGVDFAVQTADKKSVILVRRDLAGMIQEQLSGEGLPS | -0.119
48 | HMSSESIKTDKNVGVGSTLEELEKAYGSDYTLSGKMYRYYQDDNSKYMYFFILNDVVQYYGYGIDV | -1.65
49 | HMELDMTFGEKIQKLRKESGLSQEELSYQLGVSRQAISKWERDSGYPETEKIVRMSKIFDVTLDYLLNE | -0.582
50 | HMNSFGWESFVGEKGVTDTDLRPSGWIVIKDKRLFALTEGTFIEKGVSVEILSVEGNRIVVREIS | -2.9
51 | HMYEGLPVTLIIDGRVIEANLAKANRDMAWLERELANSGVRSHHDVFFATLDSRGQLYYQVKN | -1.04
52 | HMRLDSELVSARLHRFMGTNRKPDGEIVEKIAAILEGHPIETLDAFLQSLNGRKIKSYGFFPTVLRREIAN | -0.319
53 | HMRAVEGKRLKRLLRTNLIAIERDQILQYPLRKRPLAIVTRAVRATNPDAVIVNDAGDDVFARALDVLLAS | -1.44
54 | HMVAGHLQEKNGYFYIVLNYTNHEGKRKSKWITTGLTVKGNKKRAQDLLQEARKTFVPDIPT | -2.88
55 | HMTPQNAAAVLRYLSSGAIKGVGPSTAQRIVEKFGAESLDIIQNKPEELATIRGISLSKALAVSEEYNKQY | -0.289
